According to patent US20230049152A1 (Genentech, published 2023):
Each block holds one binder with its values, some of them ahead of it.

Assays:
[1] = molecular target: T1, human CCR8 (human, UniProt P51685 1-355); test: flow cytometry, CHO-huCCR8.Gna15 cells, relative to rb.Ab4
T1 construct: the assay field says which; also called hCCR8; huCCR8
Protocol: Evaluation of CCR8 binding of the humanized variants with a hIgG1 Fc involved screening by flow cytometry, and comparing the relative EC₅₀ and MFI on human CCR8 CHO cells to the parental rabbit antibodies. Specifically, stable CHO-huCCR8.Gna15 cells were stained with various concentrations (starting from 10 ug/ml or 66.66 nM, 1:4 serial dilution for total 8 concentration points) of Ab4 and Ab5 variants at 4° C. for 30 minutes, then washed twice with FACS buffer (PBS with 0.5% BSA and 0.2 mM EDTA) and followed by staining with AF647-anti-hIgG at 4° C. for 15 min. Cells were washed twice with FACS buffer, and re-suspended in FACS buffer with propidium iodide (0.5 ug/ml) and analyzed with iQue3 (Sartorius).

[2] = molecular target: T2, human CCR8.CCR5 chimera ECL1 (human, UniProt P51681 86-99, limits assumed); test: flow cytometry, 293 cells transfected with the CCR8.CCR5 chimera ECL1 with C-terminal FLAG
T2 construct: domain: ECL1; on transfected 293 cells; also called ECL1 chimera
Protocol: To epitope map fucosylated hu.Ab4.H12L3, the binding to chimeric forms of human CCR8 was analyzed by flow cytometry.

[3] = molecular target: T3, T4A; test: flow cytometry, HEK293 transfected with hCCR8 T4A with C-terminal FLAG; sheet prints [huCCR8]=0.02 ug/ml
T3 construct: single alanine mutant of hCCR8; also called hCCR8 T4A
T3 receptor chain: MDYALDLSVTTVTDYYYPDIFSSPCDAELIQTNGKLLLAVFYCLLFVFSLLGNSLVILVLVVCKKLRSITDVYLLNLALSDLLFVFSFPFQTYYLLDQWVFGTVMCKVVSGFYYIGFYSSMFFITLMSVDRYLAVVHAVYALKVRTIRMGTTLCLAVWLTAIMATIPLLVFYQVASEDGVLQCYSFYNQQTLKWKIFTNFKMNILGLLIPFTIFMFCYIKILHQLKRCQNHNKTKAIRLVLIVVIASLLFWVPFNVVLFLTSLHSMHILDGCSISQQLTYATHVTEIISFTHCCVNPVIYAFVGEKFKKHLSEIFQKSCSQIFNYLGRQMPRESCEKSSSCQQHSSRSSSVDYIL
Protocol: (§1) FIGS. 16A-16B depict the epitope maps for hu.Ab5.H13L1 (FIG. 16A) and hu.Ab4.H12L3 (FIG. 16B) mAbs.
(§2) To epitope map fucosylated hu.Ab5.H13L1, the binding to alanine point mutations in human CCR8 was analyzed by flow cytometry.

[4] = molecular target: T4, D19A; test: flow cytometry, HEK293 transfected with hCCR8 D19A with C-terminal FLAG; sheet prints [huCCR8]=0.02 ug/ml
T4 construct: single alanine mutant of hCCR8; also called hCCR8 D19A
T4 receptor chain: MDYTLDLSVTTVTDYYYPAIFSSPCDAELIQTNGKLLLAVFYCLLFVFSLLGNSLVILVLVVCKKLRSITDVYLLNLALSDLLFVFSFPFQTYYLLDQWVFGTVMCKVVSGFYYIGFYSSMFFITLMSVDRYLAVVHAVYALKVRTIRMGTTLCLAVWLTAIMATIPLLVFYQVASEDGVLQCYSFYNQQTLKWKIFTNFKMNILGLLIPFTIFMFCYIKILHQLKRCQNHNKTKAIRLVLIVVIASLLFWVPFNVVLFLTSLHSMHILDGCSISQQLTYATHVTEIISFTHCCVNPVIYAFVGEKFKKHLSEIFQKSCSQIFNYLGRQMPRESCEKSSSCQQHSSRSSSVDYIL
Protocol: as §1, §2

[5] = molecular target: T5, F21A; test: flow cytometry, HEK293 transfected with hCCR8 F21A with C-terminal FLAG; sheet prints [huCCR8]=0.02 ug/ml
T5 construct: single alanine mutant of hCCR8; also called hCCR8 F21A
T5 receptor chain: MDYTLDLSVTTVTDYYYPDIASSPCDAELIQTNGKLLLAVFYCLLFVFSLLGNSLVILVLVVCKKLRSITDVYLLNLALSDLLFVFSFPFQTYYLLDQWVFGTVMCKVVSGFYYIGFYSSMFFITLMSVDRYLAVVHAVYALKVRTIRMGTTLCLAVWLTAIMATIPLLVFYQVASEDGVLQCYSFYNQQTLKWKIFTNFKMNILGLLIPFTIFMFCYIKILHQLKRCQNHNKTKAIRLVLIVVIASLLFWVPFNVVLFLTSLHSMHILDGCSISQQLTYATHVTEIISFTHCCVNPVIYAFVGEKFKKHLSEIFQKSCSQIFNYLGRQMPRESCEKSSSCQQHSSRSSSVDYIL
Protocol: as §1, §2

[6] = molecular target: T6, I20A; test: flow cytometry, HEK293 transfected with hCCR8 I20A with C-terminal FLAG; sheet prints [huCCR8]=0.02 ug/ml
T6 construct: single alanine mutant of hCCR8; also called hCCR8 I20A
T6 receptor chain: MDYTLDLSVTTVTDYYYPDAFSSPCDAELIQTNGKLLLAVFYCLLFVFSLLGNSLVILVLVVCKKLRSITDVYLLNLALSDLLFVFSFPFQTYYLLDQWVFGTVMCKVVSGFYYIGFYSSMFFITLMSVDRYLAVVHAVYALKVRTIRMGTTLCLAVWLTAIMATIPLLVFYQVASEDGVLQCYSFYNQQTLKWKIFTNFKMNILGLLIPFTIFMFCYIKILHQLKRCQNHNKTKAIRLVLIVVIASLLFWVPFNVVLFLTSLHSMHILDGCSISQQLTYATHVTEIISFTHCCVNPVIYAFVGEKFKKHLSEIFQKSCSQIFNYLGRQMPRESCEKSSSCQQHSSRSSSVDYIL

[7] = molecular target: T7, S22A; test: flow cytometry, HEK293 transfected with hCCR8 S22A with C-terminal FLAG; sheet prints [huCCR8]=0.02 ug/ml
T7 construct: single alanine mutant of hCCR8; also called hCCR8 S22A
T7 receptor chain: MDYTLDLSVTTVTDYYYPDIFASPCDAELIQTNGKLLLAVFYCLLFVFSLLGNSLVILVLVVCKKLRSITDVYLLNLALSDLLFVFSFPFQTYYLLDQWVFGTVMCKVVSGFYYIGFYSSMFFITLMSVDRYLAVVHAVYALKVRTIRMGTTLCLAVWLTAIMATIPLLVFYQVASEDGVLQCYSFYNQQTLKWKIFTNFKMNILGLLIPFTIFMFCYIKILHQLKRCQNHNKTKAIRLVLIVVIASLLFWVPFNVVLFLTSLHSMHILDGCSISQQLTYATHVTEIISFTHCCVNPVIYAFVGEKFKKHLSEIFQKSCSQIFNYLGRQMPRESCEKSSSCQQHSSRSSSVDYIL

Relative EC50 [1]: 0.88 ratio
Relative MFI [1]: 0.95 ratio
B1: hu.Ab4.H1L1 (antibody, human IgG1, kappa)
heavy: not shown
light: DYQMTQSPSSLSASVGDRVTITCQASQSISSYLSWYQQKPGKRPKLLIYKASTLASGVPSRFSGSGSGTDFTLTISSLQPEDFATYYCQQGYTSSNIDNIFGGGTKVEIKRTVAAPSVFIFPPSDEQLKSGTASVVCLLNNFYPREAKVQWKVDNALQSGNSQESVTEQDSKDSTYSLSSTLTLSKADYEKHKVYACEVTHQGLSSPVTKSFNRGEC
notes: also called hu.Ab4.H1Ll

binding result [2]: no binding
B2: hu.Ab4.H12L3 (antibody, human IgG1, kappa)
heavy: not shown
light: DYQMTQSPSSLSASVGDRVTITCQASQSISSYLSWYQQKPGKAPKLLIYKASTLASGVPSRFSGSGSGTDFTLTISSLQPEDFATYYCQQGYTSSNIDNIFGGGTKVEIKRTVAAPSVFIFPPSDEQLKSGTASVVCLLNNFYPREAKVQWKVDNALQSGNSQESVTEQDSKDSTYSLSSTLTLSKADYEKHKVYACEVTHQGLSSPVTKSFNRGEC
notes: fucosylated human IgG1; also called huCCR8-Ab4.H12L3.hIgG1; Ab4 variant

binding result [3]: binds
binding result [4]: binds
binding result [5]: binds
binding result [6]: binds
binding result [7]: binds
B3: hu.Ab5.H13L1 (antibody, human IgG1, kappa)
heavy: not shown
light: DIQVTQSPSSLSASVGDRVTITCQASENIANALAWYQQKPGKPPKFLIYGASNLASGVPSRFSGSGSGTDFTFTISSLQPEDIATYYCQQAYYGNSFVEGTFGGGTKVEIKRTVAAPSVFIFPPSDEQLKSGTASVVCLLNNFYPREAKVQWKVDNALQSGNSQESVTEQDSKDSTYSLSSTLTLSKADYEKHKVYACEVTHQGLSSPVTKSFNRGEC
notes: fucosylated human IgG1; also called Ab5 variant
